In patent US20120021972A1 (CADILA HEALTHCARE, published 2012):
Starred links: 1 amine or outer side, 2 acyl side, 3 side chain; linkers in the order of their positions; H or OH if unused. Non-standard residues stand in square brackets, D forms with d. No end group written: not given here. AMCB = 2-amino-5-(4-chloro-2-methylphenyl)pentanoic acid, Cc1cc(Cl)ccc1CCC[C@H](N[*:1])C(=O)[*:2]; 2CF3,4F‑APPA = 2-amino-5-(4-fluoro-2-(trifluoromethyl)phenyl)pentanoic acid; 2CF3‑APPA = 2-amino-5-(2-(trifluoromethyl)phenyl)pentanoic acid; Bip(2'-Et-4'-OMe) = CCc1cc(OC)ccc1-c1ccc(C[C@H](N)C(=O)O)cc1; Leu(5,5,5,5',5',5'-F6) = N[C@@H](CC(C(F)(F)F)C(F)(F)F)C(=O)O; Nva(5-(3,5-Me2Ph)) = Cc1cc(C)cc(CCC[C@H](N)C(=O)O)c1; 2F‑APPA = 2-amino-5-(2-fluorophenyl)pentanoic acid; αMePhe(2-F) = C[C@](N)(Cc1ccccc1F)C(=O)O; hhPhe = N[C@@H](CCCc1ccccc1)C(=O)O; CNB = not defined here; Ac3c = NC1(C(=O)O)CC1; Aib = CC(C)(N)C(=O)O

How the values were obtained:
Experiment in all cases: cell-based or functional assay
[1] = molecular target: human glucagon receptor (human, UniProt P47871 26-477)
[2] = molecular target: T1, human GLP-1 receptor (human, UniProt P43220 24-463)
T1 sequence (P43220 24-463): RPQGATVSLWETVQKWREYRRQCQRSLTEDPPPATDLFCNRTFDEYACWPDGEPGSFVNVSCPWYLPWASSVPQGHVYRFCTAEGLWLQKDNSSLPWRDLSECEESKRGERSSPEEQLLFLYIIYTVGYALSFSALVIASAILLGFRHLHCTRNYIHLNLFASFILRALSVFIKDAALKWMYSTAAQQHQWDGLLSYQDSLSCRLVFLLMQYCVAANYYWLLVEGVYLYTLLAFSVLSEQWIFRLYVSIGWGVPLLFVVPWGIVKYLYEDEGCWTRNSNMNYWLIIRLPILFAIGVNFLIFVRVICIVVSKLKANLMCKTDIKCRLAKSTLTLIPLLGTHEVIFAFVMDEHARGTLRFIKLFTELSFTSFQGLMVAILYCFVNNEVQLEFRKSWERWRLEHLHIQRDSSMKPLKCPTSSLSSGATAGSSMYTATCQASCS

[3] = molecular target: T1, human GLP-1 receptor; remark: listed apart in the source

B1: Seq. ID. No. 40: H-Aib-QGT-(α-Me-2F-Phe)-TSD-Bip(OMe)-(AMCB) (peptide)
peptide: H[Aib]QGT[αMePhe(2-F)]TSD[Bip(2'-Et-4'-OMe)][AMCB]
[1]
  inhibition of cAMP production, 1 nM: 18 pmol/ml/µg prt
  inhibition of cAMP production, 10 nM: 16 pmol/ml/µg prt
  inhibition of cAMP production, 100 nM: 12 pmol/ml/µg prt
  inhibition of cAMP production, 1 µM: 8 pmol/ml/µg prt
  inhibition of cAMP production, 10 µM: 6 pmol/ml/µg prt
[2]
  cAMP release, % activity, 1 nM: 38%
  cAMP release, % activity, 10 nM: 77%
  cAMP release, % activity, 100 nM: 85%
  cAMP release, % activity, 1 µM: 94%
  cAMP release, % activity, 10 µM: 97%

B2: Seq. ID. No. 38: H-Aib-QGT-(α-Me-2F-Phe)-TSD-Bip(OMe)-(ADMP) (peptide)
peptide: H[Aib]QGT[αMePhe(2-F)]TSD[Bip(2'-Et-4'-OMe)][Nva(5-(3,5-Me2Ph))]
[3]
  EC50, cAMP, H GLP-1 R assay: 0.34 nM

B3: Seq. ID. No. 77: H-Aib-(CNB)-GTFTSD-Bip(OMe)-(2F-APPA) (peptide)
peptide: H[Aib][CNB]GTFTSD[Bip(2'-Et-4'-OMe)][2F‑APPA]
modifications: reading uncertain
[1]
  inhibition of cAMP production, 1 nM: 20 pmol/ml/µg prt
  inhibition of cAMP production, 10 nM: 18 pmol/ml/µg prt
  inhibition of cAMP production, 100 nM: 16 pmol/ml/µg prt
  inhibition of cAMP production, 1 µM: 14 pmol/ml/µg prt
  inhibition of cAMP production, 10 µM: 12 pmol/ml/µg prt
[2]
  cAMP release, % activity, 1 nM: 40%
  cAMP release, % activity, 10 nM: 81%
  cAMP release, % activity, 100 nM: 87%
  cAMP release, % activity, 1 µM: 95%
  cAMP release, % activity, 10 µM: 98%

B4: Seq. ID. No. 45: HSQGTFTSD-Bip(OMe)-(2F-APPA) (peptide)
peptide: HSQGTFTSD[Bip(2'-Et-4'-OMe)][2F‑APPA]
[1]
  inhibition of cAMP production, 1 nM: 15 pmol/ml/µg prt
  inhibition of cAMP production, 10 nM: 12 pmol/ml/µg prt
  inhibition of cAMP production, 100 nM: 8 pmol/ml/µg prt
  inhibition of cAMP production, 1 µM: 4 pmol/ml/µg prt
  inhibition of cAMP production, 10 µM: 2 pmol/ml/µg prt
[2]
  cAMP release, % activity, 1 nM: 51%
  cAMP release, % activity, 10 nM: 86%
  cAMP release, % activity, 100 nM: 91%
  cAMP release, % activity, 1 µM: 99%
  cAMP release, % activity, 10 µM: 99%

B5: Seq. ID. No. 72: H-(ACP)-QGTFTSD-Bip(OMe)-(2CF3,4F-APPA) (peptide)
peptide: H[Ac3c]QGTFTSD[Bip(2'-Et-4'-OMe)][2CF3,4F‑APPA]
[1]
  inhibition of cAMP production, 1 nM: 9 pmol/ml/µg prt
  inhibition of cAMP production, 10 nM: 6 pmol/ml/µg prt
  inhibition of cAMP production, 100 nM: 5 pmol/ml/µg prt
  inhibition of cAMP production, 1 µM: 3 pmol/ml/µg prt
  inhibition of cAMP production, 10 µM: 0 pmol/ml/µg prt
[2]
  cAMP release, % activity, 1 nM: 45%
  cAMP release, % activity, 10 nM: 84%
  cAMP release, % activity, 100 nM: 90%
  cAMP release, % activity, 1 µM: 99%
  cAMP release, % activity, 10 µM: 99%

B6: Seq. ID. No. 30: H-Aib-(CNB)-GTFTSD-Bip(OMe)-(ADMP) (peptide)
peptide: H[Aib][CNB]GTFTSD[Bip(2'-Et-4'-OMe)][Nva(5-(3,5-Me2Ph))]
modifications: reading uncertain
[1]
  inhibition of cAMP production, 1 nM: 22 pmol/ml/µg prt
  inhibition of cAMP production, 10 nM: 21 pmol/ml/µg prt
  inhibition of cAMP production, 100 nM: 20 pmol/ml/µg prt
  inhibition of cAMP production, 1 µM: 18 pmol/ml/µg prt
  inhibition of cAMP production, 10 µM: 18 pmol/ml/µg prt
[2]
  cAMP release, % activity, 1 nM: 38%
  cAMP release, % activity, 10 nM: 78%
  cAMP release, % activity, 100 nM: 86%
  cAMP release, % activity, 1 µM: 95%
  cAMP release, % activity, 10 µM: 98%

B7: Seq. ID. No. 79: H-Aib-(CNB)-GTFTSD-Bip(OMe)-(2CF3-APPA) (peptide)
peptide: H[Aib][CNB]GTFTSD[Bip(2'-Et-4'-OMe)][2CF3‑APPA]
modifications: reading uncertain
[1]
  inhibition of cAMP production, 1 nM: 6 pmol/ml/µg prt
  inhibition of cAMP production, 10 nM: 5 pmol/ml/µg prt
  inhibition of cAMP production, 100 nM: 2 pmol/ml/µg prt
  inhibition of cAMP production, 1 µM: 0 pmol/ml/µg prt
  inhibition of cAMP production, 10 µM: 0 pmol/ml/µg prt
[2]
  cAMP release, % activity, 1 nM: 62%
  cAMP release, % activity, 10 nM: 94%
  cAMP release, % activity, 100 nM: 99%
  cAMP release, % activity, 1 µM: 99%
  cAMP release, % activity, 10 µM: 99%

B8: Seq. ID. No. 237: H-Aib-(Hfl)-GT-(α-Me-2F-Phe)-TSD-Bip(OMe)-(AMCB) (peptide)
peptide: H[Aib][Leu(5,5,5,5',5',5'-F6)]GT[αMePhe(2-F)]TSD[Bip(2'-Et-4'-OMe)][AMCB]
[1]
  inhibition of cAMP production, 1 nM: 21 pmol/ml/µg prt
  inhibition of cAMP production, 10 nM: 19 pmol/ml/µg prt
  inhibition of cAMP production, 100 nM: 18 pmol/ml/µg prt
  inhibition of cAMP production, 1 µM: 18 pmol/ml/µg prt
  inhibition of cAMP production, 10 µM: 16 pmol/ml/µg prt
[2]
  cAMP release, % activity, 1 nM: 96%
  cAMP release, % activity, 10 nM: 99%
  cAMP release, % activity, 100 nM: 99%
  cAMP release, % activity, 1 µM: 99%
  cAMP release, % activity, 10 µM: 99%

B9: Seq. ID. No. 29: H-Aib-(CNB)-GTFTSD-Bip(OMe)-(APPA) (peptide)
peptide: H[Aib][CNB]GTFTSD[Bip(2'-Et-4'-OMe)][hhPhe]
modifications: reading uncertain
[1]
  inhibition of cAMP production, 1 nM: 20 pmol/ml/µg prt
  inhibition of cAMP production, 10 nM: 18 pmol/ml/µg prt
  inhibition of cAMP production, 100 nM: 16 pmol/ml/µg prt
  inhibition of cAMP production, 1 µM: 14 pmol/ml/µg prt
  inhibition of cAMP production, 10 µM: 12 pmol/ml/µg prt
[2]
  cAMP release, % activity, 1 nM: 96%
  cAMP release, % activity, 10 nM: 99%
  cAMP release, % activity, 100 nM: 99%
  cAMP release, % activity, 1 µM: 99%
  cAMP release, % activity, 10 µM: 99%
